The target of experiment [1] is T1, full length human 5T4 (SEQ ID NO: 1) on cells (human, UniProt Q13641 32-420).
T1 construct: Uniprot Q13641; residues 1-31 are the signal peptide; Used both for transfected HEK-293 cells and for 5T4-expressing human tumor cell lines
T1 sequence: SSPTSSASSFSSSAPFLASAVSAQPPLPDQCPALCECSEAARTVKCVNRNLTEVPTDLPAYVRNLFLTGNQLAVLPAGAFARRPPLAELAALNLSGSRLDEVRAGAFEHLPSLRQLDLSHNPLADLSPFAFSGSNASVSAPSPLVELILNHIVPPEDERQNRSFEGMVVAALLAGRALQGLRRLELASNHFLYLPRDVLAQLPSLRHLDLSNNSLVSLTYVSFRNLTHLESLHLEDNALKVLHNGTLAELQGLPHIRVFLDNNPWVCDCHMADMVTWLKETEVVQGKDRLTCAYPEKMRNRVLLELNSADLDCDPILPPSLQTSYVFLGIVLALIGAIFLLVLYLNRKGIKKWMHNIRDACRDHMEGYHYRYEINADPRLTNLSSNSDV
As to the kind of experiment: flow cytometry, HEK-293 cells transfected with human 5T4, PE secondary [II)E]. (In general: In flow cytometry, cells or beads pass a laser one at a time.)

Experiment [2] addresses T2, full length cynomolgus monkey 5T4 on transfected HEK-293 cells (cynomolgus monkey, UniProt Q4R8Y9 35-420).
T2 construct: Uniprot Q4R8Y9; residues 1-34 are the signal peptide; also called cynomolgus 5T4
T2 sequence: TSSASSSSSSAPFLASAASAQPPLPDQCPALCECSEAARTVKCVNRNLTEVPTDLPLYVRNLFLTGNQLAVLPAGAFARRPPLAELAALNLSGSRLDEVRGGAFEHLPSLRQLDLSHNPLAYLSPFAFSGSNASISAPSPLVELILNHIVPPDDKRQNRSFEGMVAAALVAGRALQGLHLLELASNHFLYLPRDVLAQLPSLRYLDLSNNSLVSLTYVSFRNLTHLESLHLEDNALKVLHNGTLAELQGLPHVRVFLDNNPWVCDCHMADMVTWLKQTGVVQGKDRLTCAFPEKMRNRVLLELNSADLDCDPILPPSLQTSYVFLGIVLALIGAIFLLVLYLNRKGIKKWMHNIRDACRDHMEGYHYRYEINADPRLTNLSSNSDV
As to the kind of experiment: flow cytometry, HEK-293 cells transfected with cynomolgus monkey 5T4, PE secondary [II)E].

For experiment [3], the target named is T3, human 5T4ECDHis (mature protein of SEQ ID NO: 99) (human, UniProt Q13641 32-355).
T3 construct: ECD of human 5T4 (aa 1-355 of Uniprot Q13641) with C-terminal His tag; residues 1-31 are the signal peptide; also called ECD of human 5T4 with a C-terminal His tag
T3 sequence: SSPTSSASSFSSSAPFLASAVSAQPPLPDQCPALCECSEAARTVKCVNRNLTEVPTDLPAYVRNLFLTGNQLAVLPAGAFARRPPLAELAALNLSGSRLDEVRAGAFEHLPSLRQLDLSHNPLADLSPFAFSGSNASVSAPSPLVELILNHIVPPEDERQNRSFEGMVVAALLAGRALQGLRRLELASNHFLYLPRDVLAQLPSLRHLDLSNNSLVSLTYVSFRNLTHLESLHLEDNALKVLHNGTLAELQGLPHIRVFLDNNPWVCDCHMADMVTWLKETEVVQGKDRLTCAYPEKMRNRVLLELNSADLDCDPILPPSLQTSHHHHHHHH
As to the kind of experiment: BLI cross-block; competitor (immobilised): IgG1-5T4-H8-FEAR.

The target of experiment [4] is T3, human 5T4ECDHis (mature protein of SEQ …). Description: BLI cross-block; competitor (immobilised): IgG1-5T4-059-FEAR.
For experiment [5] the target is unchanged. As to the kind of experiment: BLI cross-block; competitor (immobilised): IgG1-5T4-076-FEAR.
Experiment [6] shares this target. Description: BLI cross-block; competitor (immobilised): IgG1-5T4-085-FEAR.
Experiment [7] shares this target. As to the kind of experiment: BLI cross-block; competitor (immobilised): IgG1-5T4-106-FEAR.
Experiment [8] has the same target. As to the kind of experiment: BLI cross-block; competitor (immobilised): IgG1-5T4-127-FEAR.
For experiment [9] the target is unchanged. As to the kind of experiment: BLI cross-block; competitor (immobilised): IgG1-5T4-207-FEAR.
Experiment [10] shares this target. Description: BLI cross-block; competitor (immobilised): IgG1-5T4-226-FEAR.
Experiment [11] has the same target. As to the kind of experiment: BLI cross-block; competitor (immobilised): IgG1-5T4-A1-F405L.
For experiment [12] the target is unchanged. Description: BLI cross-block; competitor (immobilised): IgG1-5T4-A3-F405L.
Experiment [13] addresses T2, full length cynomolgus monkey 5T4 on …. As to the kind of experiment: flow cytometry, HEK-293 cells transfected with cynomolgus monkey 5T4, PE secondary [II)G].
The target of experiment [14] is T1, full length human 5T4 (SEQ ID NO: 1) on …. Description: flow cytometry, HeLa cells, PE secondary [II)H].
In experiment [15] the target is T2, full length cynomolgus monkey 5T4 on …. As to the kind of experiment: flow cytometry, HEK-293 cells transfected with cynomolgus monkey 5T4, PE secondary [II)I].
In experiment [16] the target is T3, human 5T4ECDHis (mature protein of SEQ …). Description: BLI, antibody on anti-human IgG Fc Capture biosensor, antigen in solution. A general note: Biolayer interferometry detects binding as a change in optical thickness at a sensor tip.
The target of experiment [17] is T1, full length human 5T4 (SEQ ID NO: 1) on …. As to the kind of experiment: flow cytometry, HEK-293 cells transfected with human 5T4, FITC secondary [I)D].

Results on eight molecules are retold here after patent US20230257479A1 (Genmab, published 2023).

B1: bsIgG1-huCD3-H101G-FEALx5T4-076-FEAR (bispecific antibody)
heavy: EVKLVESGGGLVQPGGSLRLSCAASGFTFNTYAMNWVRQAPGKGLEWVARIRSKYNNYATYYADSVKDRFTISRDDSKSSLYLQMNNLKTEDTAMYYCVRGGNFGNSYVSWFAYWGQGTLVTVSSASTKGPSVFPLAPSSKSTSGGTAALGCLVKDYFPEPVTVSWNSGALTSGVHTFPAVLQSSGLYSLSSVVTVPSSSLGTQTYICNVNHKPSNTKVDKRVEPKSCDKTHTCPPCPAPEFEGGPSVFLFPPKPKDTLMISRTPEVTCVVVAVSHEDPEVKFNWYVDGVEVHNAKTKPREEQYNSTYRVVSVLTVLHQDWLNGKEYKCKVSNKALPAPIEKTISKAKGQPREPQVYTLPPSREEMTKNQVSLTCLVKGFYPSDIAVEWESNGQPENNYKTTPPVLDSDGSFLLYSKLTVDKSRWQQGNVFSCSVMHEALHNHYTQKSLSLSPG
light: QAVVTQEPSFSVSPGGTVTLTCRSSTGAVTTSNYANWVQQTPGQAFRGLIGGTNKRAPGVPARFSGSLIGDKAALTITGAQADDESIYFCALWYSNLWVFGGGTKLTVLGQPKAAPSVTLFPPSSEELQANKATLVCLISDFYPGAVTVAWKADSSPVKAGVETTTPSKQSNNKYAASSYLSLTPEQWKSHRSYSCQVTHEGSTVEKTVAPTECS
VH: QVQLVQSGAEVKKPGASVKVSCKASGYTFTSYGISWVRQAPGQGLEWMGWISAYNGNTNYAQKLQGRVTMTTDTSTRTAYMELRSLRSDDTAVYYCARDPGYFDWLYGDYWGQGTLVTVSS
VL: AIQLTQSPSSLSASVGDRVTITCRASQGISSALAWYQQKPGKAPKLLIYDASSLESGVPSRFSGSGSGTDFTLTISSLQPEDFATYYCQQFNSYPRTFGQGTKVEIK
notes: Fab-arm exchange product
Broadly, the EC50 (read off the curve) is the concentration at which the effect is half-maximal. Regarding B1, the binding result in experiment [1] was “binds”. Moreover, the “EC50 (read off the curve)” value in [2] is approximately 0.4 µg/mL.

B2: IgG1-5T4-076-FEAR (antibody, V domains shown)
VH: B1 VH
VL: B1 VL
notes: Monospecific, bivalent human IgG1 kappa with L234F, L235E, D265A, K409R (FEAR)
As for B2, the corrected association response was -0.02 nm in [3]; 0 nm in experiment [4]; -0.01 nm in experiment [5]; -0.01 nm in [6]; -0.03 nm in experiment [7]; -0.02 nm in experiment [8]. Besides, the corrected association response in experiment [9] came to 1.22 nm; in experiment [10], 1.47 nm; in experiment [11], 0.36 nm; in experiment [12] it was 0 nm. Also, the “EC50 (read off the curve)” value in experiment [1] was approximately 0.3 µg/mL; in [2] it was approximately 0.008 µg/mL.

B3: bsIgG1-huCD3-H101G-FEALx5T4-127-FEAR (bispecific antibody)
heavy: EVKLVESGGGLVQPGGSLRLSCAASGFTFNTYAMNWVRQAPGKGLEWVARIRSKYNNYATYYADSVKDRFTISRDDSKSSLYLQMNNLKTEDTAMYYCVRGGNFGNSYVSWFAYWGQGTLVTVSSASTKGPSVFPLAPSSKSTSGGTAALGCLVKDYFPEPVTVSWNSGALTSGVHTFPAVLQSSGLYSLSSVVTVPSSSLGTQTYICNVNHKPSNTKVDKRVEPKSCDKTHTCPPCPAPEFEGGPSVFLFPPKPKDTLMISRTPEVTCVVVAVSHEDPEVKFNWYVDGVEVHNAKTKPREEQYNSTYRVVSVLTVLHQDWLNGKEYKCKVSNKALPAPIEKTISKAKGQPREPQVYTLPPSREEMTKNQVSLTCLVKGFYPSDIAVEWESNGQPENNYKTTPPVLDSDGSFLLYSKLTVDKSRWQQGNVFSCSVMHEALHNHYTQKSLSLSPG
light: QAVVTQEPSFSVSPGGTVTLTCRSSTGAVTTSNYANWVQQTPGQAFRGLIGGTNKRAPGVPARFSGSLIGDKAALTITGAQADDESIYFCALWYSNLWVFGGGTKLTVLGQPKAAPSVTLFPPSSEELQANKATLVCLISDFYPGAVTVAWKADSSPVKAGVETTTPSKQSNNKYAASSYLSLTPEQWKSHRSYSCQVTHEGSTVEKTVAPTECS
VH: EVQLLESRGGLVQPGGSLRLSCAASGFTFSSYAMSWVRQAPGKGLEWVSTISGSGGSTYYADSVKGRFTISRDNSKKTLYLQMNSLRAEDTAVYYCAKDWGSGSYPAEYFQHWGQGTLVTVSS
VL: EIVLTQSPATLSLSPGERATLSCRASQSVSSYLAWYQQKPGQAPRLLIYDASNRATGIPARFSGSGSGTDFTLTISSLEPEDFAVYYCQQRSNWLMYTFGQGTKLEIK
notes: Fab-arm exchange product
For the molecule B3, the “EC50 (read off the curve)” value in experiment [13] is approximately 0.1 µg/mL.

B4: bsIgG1-huCD3-H101G-FEALx5T4-A3-FEAR (bispecific antibody)
heavy: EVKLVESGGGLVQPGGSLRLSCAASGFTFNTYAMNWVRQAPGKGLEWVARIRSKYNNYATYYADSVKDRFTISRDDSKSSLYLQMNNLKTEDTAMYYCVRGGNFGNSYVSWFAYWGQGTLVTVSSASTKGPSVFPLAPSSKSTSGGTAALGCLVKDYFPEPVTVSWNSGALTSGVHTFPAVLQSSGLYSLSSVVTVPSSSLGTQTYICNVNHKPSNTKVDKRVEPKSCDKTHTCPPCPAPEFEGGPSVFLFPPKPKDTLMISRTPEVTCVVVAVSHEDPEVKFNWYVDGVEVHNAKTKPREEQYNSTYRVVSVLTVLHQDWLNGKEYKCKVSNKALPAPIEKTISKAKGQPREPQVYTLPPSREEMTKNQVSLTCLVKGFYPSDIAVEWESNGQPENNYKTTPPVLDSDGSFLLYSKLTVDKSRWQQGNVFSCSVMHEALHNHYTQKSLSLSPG
light: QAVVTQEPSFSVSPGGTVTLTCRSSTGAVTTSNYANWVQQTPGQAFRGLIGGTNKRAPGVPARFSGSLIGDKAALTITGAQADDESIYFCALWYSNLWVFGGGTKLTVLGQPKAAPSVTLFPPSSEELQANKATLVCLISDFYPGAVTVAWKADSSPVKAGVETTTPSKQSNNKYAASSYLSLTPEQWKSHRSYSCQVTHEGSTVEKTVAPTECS
VH: EVQLVESGGGLVQPKGSLKLSCAASGFTFNTYAMNWVRQAPGKGLEWVARIRSKSNNYATYYADSVKDRFTISRDDSQSMLYLQMNNLKTEDTAMYYCVRQWDYDVRAMNYWGQGTSVTVSS
VL: DIVMTQSHIFMSTSVGDRVSITCKASQDVDTAVAWYQQKPGQSPKLLIYWASTRLTGVPDRFTGSGSGTDFTLTISNVQSEDLADYFCQQYSSYPYTFGGGTKLEIK
notes: Fab-arm exchange product
Turning to B4, the binding result in experiment [14] and in [15] was “binds” throughout.

B5: IgG1-5T4-A3-F405L (antibody, V domains shown)
VH: B4 VH
VL: B4 VL
notes: Variable region of A3 of WO2007106744 in a human IgG1 backbone with F405L; also called surrogate A3 antibody
Take B5: the corrected association response was 0.49 nm in experiment [3]; 0 nm in experiment [5]; -0.01 nm in [6]; 0.56 nm in experiment [7]; -0.01 nm in experiment [8]; 0.76 nm in experiment [11]. In experiment [12], this molecule returned a corrected association response of 0.01 nm.

B6: IgG1-5T4-A3-FEAR (antibody, V domains shown)
VH: B4 VH
VL: B4 VL
notes: Based on A3 from Wyeth; IgG1 with L234F, L235E, D265A, K409R (FEAR)
On to B6, for which the binding result in [14] is on record as “binds”. In experiment [15], the “EC50 (read off the curve)” value was approximately 0.1 µg/mL.

B7: IgG1-5T4-A1-F405L (antibody, V domains shown)
VH: QIQLVQSGPELKKPGETVKISCKASGYTFTNFGMNWVKQGPGEGLKWMGWINTNTGEPRYAEEFKGRFAFSLETTASTAYLQINNLKNEDTATYFCARDWDGAYFFDYWGQGTTLTVSS
VL: SIVMTQTPKFLLVSAGDRVTITCKASQSVSNDVAWYQQKPGQSPKLLINFATNRYTGVPNRFTGSGYGTDFTFTISTVQAEDLALYFCQQDYSSPWTFGGGTKLEIK
notes: Variable region of A1 of WO2007106744 in a human IgG1 backbone with F405L; also called surrogate A1 antibody
In the case of B7, the corrected association response amounted to 0.64 nm in experiment [3]; 0.96 nm in experiment [4]; 0.04 nm in experiment [5]; 0.07 nm in experiment [6]; 0.79 nm in experiment [7]; 0.15 nm in experiment [8]. Besides, the corrected association response in experiment [9] was 1.29 nm; in experiment [10], 1.56 nm; in [11] it was -0.01 nm; in [12], 0.69 nm.

B8: IgG1-5T4-H8-FEAR (antibody, V domains shown)
VH: EVQLQQSGPDLVKPGASVKISCKASGYSFTGYYMHWVKQSHGKSLEWIGRINPNNGVTLYNQKFKDKAILTVDKSSTTAYMELRSLTSEDSAVYYCARSTMITNYVMDYWGQVTSVTVSS
VL: SIVMTQTPTFLLVSAGDRVTITCKASQSVSNDVAWYQQKPGQSPTLLISYTSSRYAGVPDRFIGSGYGTDFTFTISTLQAEDLAVYFCQQDYNSPPTFGGGTKLEIK
notes: Based on 5T4 antibody H8 from Wyeth (WO 2007/106744); IgG1 with L234F, L235E, D265A, K409R (FEAR); also called IgG1-5T4-HS-FEAR; IgG1-5T4-H8-FEAR-FITC
The term Kd denotes the concentration at which binding is half-saturated. What is called koff is the rate constant with which the complex falls apart. For orientation: kon means a measure of how fast the partners come together. Consider B8, for which the corrected association response in experiment [3] was 0 nm; in experiment [4], 0.01 nm; in experiment [5], 0 nm; in [6] it was -0.01 nm; in [7], -0.02 nm; in experiment [8], -0.02 nm. The corrected association response in experiment [9] is -0.01 nm; in experiment [10], -0.01 nm; in experiment [11], 0.89 nm; in [12], 0.5 nm. Moreover, in experiment [16], the Kd stood at 1.3 nM. The molecule further gave a koff in experiment [16] of 0.00029 s⁻¹. Moreover, the kon in experiment [16] stood at 220000 M⁻¹ s⁻¹. In addition, the “EC50 (read off the curve)” value in experiment [17] is approximately 0.1 µg/mL.
